B1: Azoarcus group I ribozyme (parent)
chain: GUGCCUUGCGCCGGGAAACCACGCAAGGGAUGGUGUCAAAUUCGGCGAAACCUAAGCGCCCGCCCGGGCGUAUGGCAACGCCGAGCCAAGCUUCGGCGCCUGCGCCGAUGAAGGUGUAGAGACUAGACGGCACCCACCUAAGGCAAACGCUAUGGUGAAGGCAUAGUCCAGGGAGUGGCGAAAGUCACACAAACCGG

This series covers variants of B1. Kind of series: reverse-splicing fitness (ratio to wild type); higher = more active; in vitro selection; Mg2+ level not given. In a few lines:
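An in vitro group I ribozyme library with randomized positions was T7-transcribed and gel-purified. In triplicate, 10 pmol RNA in EPPS pH 7.5 was reacted with 50 pmoles of a 30-nt RNA substrate for 1 h at 37 °C across several added MgCl2 levels (1–48 mM), then stopped with EDTA. Products were reverse transcribed from a substrate-complementary primer, PCR-amplified and sequenced (HiSeq 4000). Fitness is a variant's read proportion after selection over that before, normalised to wild type.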
C82U A111C A145G C169U U176C: the reverse-splicing fitness is 0.0148.
As for C82U A111C A145G C169U U176A, the figure is 0.0178; as for C82U A111C A145G C150U C169A U176C, 0.013.
In the case of C82U A111C A145G C150U C169A U176A, the reverse-splicing fitness worked out at 0.0141.
Consider C82U A111C A145G C150U C169A U176G, for which the reverse-splicing fitness turned out to be 0.00752.
For C82U A111G A120C A145C C169A, the reverse-splicing fitness is 0.00548.
As for C82U A111G A120C A145C C169G, the figure is 0.00713.
As for C82U A111G A120C A145C C169U, the reverse-splicing fitness worked out at 0.0106.
Consider C82U A111C C150U U176A, for which the reverse-splicing fitness worked out at 0.0385.
Then C82U A111C C150U U176C, with 0.0667; and C82U A111C C150U U176G, with 0.0125.
With C82U A111C A145G U176A, the reverse-splicing fitness was found to be 0.0861.
As to C82U A111C A145G U176C, the reverse-splicing fitness stood at 0.113.
With C82U A111C A145G U176G, the reverse-splicing fitness is 0.0201.
Then C82U A111C A145G C150A C169A U176A, with 0.0149; and C82U A111C A145G C150A C169A U176G, with 0.00838.
Take C82U A111C A145G C150A C169A U176C: the reverse-splicing fitness worked out at 0.0197.
C82U A111G A120C A145C C150U U176C: the reverse-splicing fitness turned out to be 0.0114.
Take C82U A111G A120C A145C C150U U176G: the reverse-splicing fitness was determined as 0.00465.
Take C82U A111G A120C A145C C150U U176A: the reverse-splicing fitness was found to be 0.0105.
As for C82U A111C A145G C169A U176C, the reverse-splicing fitness stood at 0.0298.
In the case of C82U A111C A145G C169A U176A, the reverse-splicing fitness was determined as 0.0231.
Consider C82U A111C A145G C169A U176G, for which the reverse-splicing fitness came out at 0.00741.
As for C82U A111C A145U C169G, the figure is 0.0103; as for C82U A111C A145U C169A, 0.00715; as for C82U A111C A145U C169U, 0.0114.
Consider C82U A111C A145U C150U U176A, for which the reverse-splicing fitness was 0.0489.
For C82U A111C A145U C150U U176G, the reverse-splicing fitness came out at 0.0152.
Turning to C82U A111C A145U C150U U176C, the reverse-splicing fitness stood at 0.0704.
As for C82U A111G, the figure is 0.477.
In the case of C82U A111C C150U C169G U176C, the reverse-splicing fitness stood at 0.0161.
Consider C82U A111C C150U C169G U176A, for which the reverse-splicing fitness turned out to be 0.0119.
For the variant C82U A111C C150U C169G U176G, the reverse-splicing fitness was determined as 0.00752.
Regarding C82U A111G A120C A145C C150U C169G U176A, the reverse-splicing fitness came out at 0.0173.
With C82U A111G A120C A145C C150U C169G U176C, the reverse-splicing fitness was determined as 0.00801.
Consider C82U A111G A120C A145C C150U C169G U176G, for which the reverse-splicing fitness worked out at 0.00444.
Turning to C82U A111C A145U C150A C169A U176A, the reverse-splicing fitness turned out to be 0.0124.
Regarding C82U A111C A145U C150A C169A U176G, the reverse-splicing fitness turned out to be 0.00756.
Consider C82U A111C A145U C150A C169A U176C, for which the reverse-splicing fitness came out at 0.0128.
As for C82U A111C A145C C150U C169A, the figure is 0.00854; as for C82U A111C A145C C150U C169G, 0.00727.
On to C82U A111C A145C C150U C169U, for which the reverse-splicing fitness was found to be 0.00891.
In the case of C82U A111C A145G C150G C169A U176A, the reverse-splicing fitness worked out at 0.0123.
Regarding C82U A111C A145G C150G C169A U176G, the reverse-splicing fitness was found to be 0.0072.
In the case of C82U A111C A145G C150G C169A U176C, the reverse-splicing fitness worked out at 0.0111.
Then C82U A111C C150A C169A U176C, with 0.0175.
On to C82U A111C C150A C169A U176G, for which the reverse-splicing fitness is 0.00821.
Then C82U A111C C150A C169A U176A, with 0.0162.
In the case of C82U A111C A145C C150U C169U U176C, the reverse-splicing fitness stood at 0.00946.
Take C82U A111C A145C C150U C169U U176A: the reverse-splicing fitness is 0.0154.
As for C82U A111C A145C C150U C169U U176G, the reverse-splicing fitness came to 0.00631.
In the case of C82U A111G A120C A145G C150A C169U U176G, the reverse-splicing fitness amounted to 0.00508.
As for C82U A111G A120C A145G C150A C169U U176A, the figure is 0.015.
Turning to C82U A111G A120C A145G C150A C169U U176C, the reverse-splicing fitness worked out at 0.014.
In the case of C82U A111G A120C A145C C169U U176G, the reverse-splicing fitness came to 0.0032.
As for C82U A111G A120C A145C C169U U176C, the reverse-splicing fitness came to 0.0107.
With C82U A111G A120C A145C C169U U176A, the reverse-splicing fitness turned out to be 0.0142.
Consider C82U A111G A120C A145C C150U C169U U176A, for which the reverse-splicing fitness is 0.0144.
For C82U A111G A120C A145C C150U C169U U176C, the reverse-splicing fitness is 0.00942.
For C82U A111G A120C A145C C150U C169U U176G, the reverse-splicing fitness came to 0.00402.
Turning to C82U A111C A145U C150U C169U, the reverse-splicing fitness was 0.0107.
C82U A111C A145U C150U C169A: the reverse-splicing fitness came to 0.00889.
For the variant C82U A111C A145U C150U C169G, the reverse-splicing fitness was determined as 0.00836.
For the variant C82U A111C C150A C169A, the reverse-splicing fitness worked out at 0.00994.
Turning to C82U A111C C150A C169U, the reverse-splicing fitness came out at 0.0106.
On to C82U A111C C150A C169G, for which the reverse-splicing fitness came out at 0.00852.
Then C82U A111C A145U C150G C169A U176A, with 0.00909.
Take C82U A111C A145U C150G C169A U176G: the reverse-splicing fitness was found to be 0.00824.
On to C82U A111C A145U C150G C169A U176C, for which the reverse-splicing fitness was 0.0103.
Take C82U A111C A145C C150G U176C: the reverse-splicing fitness is 0.0151.
For the variant C82U A111C A145C C150G U176G, the reverse-splicing fitness came out at 0.00264.
Turning to C82U A111C A145C C150G U176A, the reverse-splicing fitness is 0.00961.
As for C82U A111C C150U C169U U176A, the reverse-splicing fitness was found to be 0.0192.
For C82U A111C C150U C169U U176G, the reverse-splicing fitness was determined as 0.00713.
Turning to C82U A111C C150U C169U U176C, the reverse-splicing fitness came out at 0.0145.
Consider C82U A111C C150A C169G U176A, for which the reverse-splicing fitness is 0.0162.
In the case of C82U A111C C150A C169G U176G, the reverse-splicing fitness was 0.00835.
As for C82U A111C C150A C169G U176C, the figure is 0.0236.
On to C82U A111C U176C, for which the reverse-splicing fitness turned out to be 0.104.
In the case of C82U A111C U176G, the reverse-splicing fitness was determined as 0.02.
Consider C82U A111C U176A, for which the reverse-splicing fitness was 0.0847.
Consider C82U A111G A120C A145G C150A C169A, for which the reverse-splicing fitness was found to be 0.00928.
For C82U A111G A120C A145G C150A C169U, the reverse-splicing fitness turned out to be 0.0111.
As to C82U A111G A120C A145G C150A C169G, the reverse-splicing fitness amounted to 0.0105.
